Measurements from US9279017B2.

What was measured:
[1] = target: recombinant human GM-CSF (rhGM-CSF) (human) (UniProt P04141); experiment: SPR (BIAcore), rhGM-CSF immobilised, analyte 38.5 nM
[2] = target: recombinant human GM-CSF (rhGM-CSF) (human) (UniProt P04141); experiment: SPR (BIAcore), rhGM-CSF immobilised, analyte 12.8 nM
[3] = target: recombinant human GM-CSF (rhGM-CSF) (human) (UniProt P04141); experiment: SPR (BIAcore), rhGM-CSF immobilised, analyte 347 nM
[4] = target: recombinant human GM-CSF (rhGM-CSF) (human) (UniProt P04141); experiment: SPR (BIAcore), rhGM-CSF immobilised, analyte 1040 nM
[5] = target: recombinant human GM-CSF (rhGM-CSF) (human) (UniProt P04141); experiment: SPR (BIAcore), kinetic analysis, rhGM-CSF immobilised
[6] = target: recombinant human GM-CSF (rhGM-CSF) (human) (UniProt P04141)
[7] = target: recombinant human GM-CSF (rhGM-CSF) (human) (UniProt P04141); experiment: SPR (BIAcore), rhGM-CSF immobilised, analyte 3120 nM
[8] = target: recombinant human GM-CSF (rhGM-CSF) (human) (UniProt P04141); experiment: SPR (BIAcore), rhGM-CSF immobilised, analyte 116 nM

B1: half-human SCA B32oN-45 (scFv)
scFv: ELQLVEQSGAALVKPGDSVKMSCKASGYPFTDYIVHWVKQSHGKSLDWIGYINPYSGDTKFNEKFKSKATLTVDKSSSTAYMEFSRLTSEDSAIYYCARSGLIAVYFDYWGQGTTVTVSSGGGGSGGGGSGGGGSELVMTQSPSSVSASVGDRVTIACRASQNIRNILNWYQQRPGKAPQLLIYAASNLQSGVPSRFSGSGSGTDFTLTINSLQPEDFATYYCQQSYSMPRTFGGGTKVEIKTGDYKDDDDK
- Ka [1]: 2.2e+08 M⁻¹
- Kd [1]: 4.55 nM
- koff [1]: 0.00444 s⁻¹
- kon [1]: 975000 M⁻¹ s⁻¹
- Ka [2]: 3.25e+08 M⁻¹
- Kd [2]: 3.07 nM
- koff [2]: 0.00384 s⁻¹
- kon [2]: 1.25e+06 M⁻¹ s⁻¹
- Ka [3]: 9.22e+07 M⁻¹
- Kd [3]: 10.8 nM
- koff [3]: 0.00477 s⁻¹
- kon [3]: 440000 M⁻¹ s⁻¹
- Ka [4]: 1.89e+07 M⁻¹
- Kd [4]: 52.8 nM
- koff [4]: 0.0046 s⁻¹
- kon [4]: 87100 M⁻¹ s⁻¹
- Kd [5]: 50 nM
- inhibition of rhGM-CSF dependent proliferation of TF-1 cells [6]: 6 nM
- Ka [7]: 1.06e+07 M⁻¹
- Kd [7]: 94.6 nM
- koff [7]: 0.00514 s⁻¹
- kon [7]: 54300 M⁻¹ s⁻¹
- Ka [8]: 1.66e+08 M⁻¹
- Kd [8]: 6.01 nM
- koff [8]: 0.00464 s⁻¹
- kon [8]: 772000 M⁻¹ s⁻¹
